# Assay results published in US20240131065A1 (CRAGE MEDICAL, published 2024).
# Target: T1, CD94 monomeric Fc fusion protein (human, UniProt P0DOX5 223-449 = IgG part)
# T1 construct: also called huFc(hole)-CD94-ECD and huFc(knob); human CD94 monomeric Fc fusion protein antigen
# Assay: phage display panning on coated CD94 monomeric Fc fusion protein, then ELISA
# Experimental: Briefly, immunotubes were coated with 10 μg/ml of the antigene CD94 monomeric Fc fusion protein prepared above, blocked with phosphate buffered saline (MPBS) comprising 3% […] for 2 hours at room temperature. In order to screen for antibodies that specifically bind to CD94, the phage library was added to the immunotubes coated with the antigen CD94 monomeric Fc fusion protein and bound for 1.5 hours. The non-specific phages were then washed away, and the bound phages were eluted with 100 mM triethylamine and infected E. coli TG1 in logarithmic growth phase. Expanded culture of the eluted phages, and the expanded phage library was purified using PEG/NaCl precipitation for the next round of screening.
# A total of three rounds of screening were performed, and 9 positive clones that specifically bind to CD94 were obtained after three rounds of screening. These clones were subsequently subjected to ELISA and sequencing analysis, two unique sequences were selected, 2B1 and 2F1, respectively. The ELISA results are shown in FIG. 2 (NA is the blank control group).
binder,measurement,value
"2B1 (Fab, V domains shown, Clone from a fully human Fab phage display library; also called antibody 2B1; CD94-specific antibody) VH: not shown VL: DIQMTQSPSTLSASVGDRVTITCRASQSISSWLAWYQQKPGKAPKLLIYDASSLESGVPSRFSGSGSGTEFTLTISSLQPDDFATYYCQQYYFYPYTFGQGTKVEIKR",binding result,binds
